Test results taken from PMC13138344, “Embryonic stem cell factors DPPA2/4 amplify active H3K4me3–H2AK119ub chromatin domains in non-small cell lung cancer” (Genes & Development, 2026).

T1: developmental pluripotency-associated 2 (DPPA2) (human (endogenous in NCI-H661), UniProt Q7Z7J5 1-298)
T1 construct: DPPA2, human, endogenous in NCI-H661 non-small cell lung cancer cells; source: endogenous, NCI-H661 whole-cell lysate (IP-MS); endogenous, NCI-H661 double-cross-linked chromatin (RIME)
T1 sequence (looked up): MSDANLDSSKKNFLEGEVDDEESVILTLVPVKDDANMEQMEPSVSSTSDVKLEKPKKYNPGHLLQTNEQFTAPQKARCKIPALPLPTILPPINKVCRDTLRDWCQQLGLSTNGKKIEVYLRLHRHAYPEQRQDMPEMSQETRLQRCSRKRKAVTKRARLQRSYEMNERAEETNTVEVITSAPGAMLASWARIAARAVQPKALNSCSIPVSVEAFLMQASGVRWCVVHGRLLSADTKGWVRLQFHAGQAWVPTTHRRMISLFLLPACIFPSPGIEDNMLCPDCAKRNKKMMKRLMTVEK

B1: developmental pluripotency-associated 4 (DPPA4) (natural protein, human (endogenous in NCI-H661), UniProt Q7L190 1-304, looked up)
chain: MLRGSASSTSMEKAKGKEWTSTEKSREEDQQASNQPNSIALPGTSAKRTKEKMSIKGSKVLCPKKKAEHTDNPRPQKKIPIPPLPSKLPPVNLIHRDILRAWCQQLKLSSKGQKLDAYKRLCAFAYPNQKDFPSTAKEAKIRKSLQKKLKVEKGETSLQSSETHPPEVALPPVGEPPALENSTALLEGVNTVVVTTSAPEALLASWARISARARTPEAVESPQEASGVRWCVVHGKSLPADTDGWVHLQFHAGQAWVPEKQEGRVSALFLLPASNFPPPHLEDNMLCPKCVHRNKVLIKSLQWE
notes: DPPA4, human, endogenous in NCI-H661 non-small cell lung cancer cells; source: endogenous, NCI-H661 whole-cell lysate (IP-MS); endogenous, NCI-H661 double-cross-linked chromatin (RIME)
B2: recombinant His-DPPA4 protein (natural protein, human, UniProt Q7L190 1-304, looked up)
chain: MLRGSASSTSMEKAKGKEWTSTEKSREEDQQASNQPNSIALPGTSAKRTKEKMSIKGSKVLCPKKKAEHTDNPRPQKKIPIPPLPSKLPPVNLIHRDILRAWCQQLKLSSKGQKLDAYKRLCAFAYPNQKDFPSTAKEAKIRKSLQKKLKVEKGETSLQSSETHPPEVALPPVGEPPALENSTALLEGVNTVVVTTSAPEALLASWARISARARTPEAVESPQEASGVRWCVVHGKSLPADTDGWVHLQFHAGQAWVPEKQEGRVSALFLLPASNFPPPHLEDNMLCPKCVHRNKVLIKSLQWE
notes: DPPA4, human, recombinant; The construct is named only in the EMSA legend; also called recombinant DPPA4; source: recombinant
B3: recombinant DPPA2-Myc/FLAG protein (natural protein, human, UniProt Q7Z7J5 1-298, looked up)
chain: MSDANLDSSKKNFLEGEVDDEESVILTLVPVKDDANMEQMEPSVSSTSDVKLEKPKKYNPGHLLQTNEQFTAPQKARCKIPALPLPTILPPINKVCRDTLRDWCQQLGLSTNGKKIEVYLRLHRHAYPEQRQDMPEMSQETRLQRCSRKRKAVTKRARLQRSYEMNERAEETNTVEVITSAPGAMLASWARIAARAVQPKALNSCSIPVSVEAFLMQASGVRWCVVHGRLLSADTKGWVRLQFHAGQAWVPTTHRRMISLFLLPACIFPSPGIEDNMLCPDCAKRNKKMMKRLMTVEK
notes: DPPA2, human, recombinant; The construct is named only in the EMSA legend; source: recombinant

Legend:
[1] = biological target: T1, developmental pluripotency-associated 2 …; test: affinity purification with mass spectrometry; IP of endogenous DPPA2 or DPPA4 from NCI-H661 whole-cell lysates, species-matched IgG IP control, label-free quantitation, n = 4 per condition; details: partners not purified
[2] = biological target: the molecule itself; test: mass photometry; recombinant DPPA2 and DPPA4 in vitro, each on its own and together
[3] = biological target: B2; test: as above; details: both partners purified

Row | Binder | ratio between DPPA2 and DPPA4 (iBAQ) in the DPPA2 IP [1] | binding result [2] | binding result [3]
1 | B1 | > 1 | – | –
2 | B2 | – | binds | –
3 | B3 | – | binds | binds
